These results are taken from PMC5668902.

Substrate in the series: O=C(O)C(=O)O
Description: purified protein. As to conditions: pH 4.2 acetate buffer, 25 °C, free enzyme, not immobilised.

B1: Oxalate decarboxylase (OxDC), wild type, His6-tagged (Bacillus subtilis subsp. subtilis str. 168) (protein)
chain: MKKQNDIPQPIRGDKGATVKIPRNIERDRQNPDMLVPPETDHGTVSNMKFSFSDTHNRLEKGGYAREVTVRELPISENLASVNMRLKPGAIRELHWHKEAEWAYMIYGSARVTIVDEKGRSFIDDVGEGDLWYFPSGLPHSIQALEEGAEFLLVFDDGSFSENSTFQLTDWLAHTPKEVIAANFGVTKEEISNLPGKEKYIFENQLPGSLKDDIVEGPNGEVPYPFTYRLLEQEPIESEGGKVYIADSTNFKVSKTIASALVTVEPGAMRELHWHPNTHEWQYYISGKARMTVFASDGHARTFNYQAGDVGYVPFAMGHYVENIGDEPLVFLEIFKDDHYADVSLNQWLAMLPETFVQAHLDLGKDFTDVLSKEKHPVVKKKCSK
What is called Km is the concentration of substrate that gives half-maximal velocity. For orientation: kcat means the number of substrate molecules converted per active site and unit of time at saturation. As a reminder, the kcat/Km is the turnover number divided by the Michaelis constant. Turning to B1, the Km was found to be 12 ± 3 mM, the kcat came to 158 ± 13 s⁻¹ and the kcat/Km turned out to be 13000 ± 3000 M⁻¹ s⁻¹.
